Substitutions are numbered along the chain they refer to.
Tests used:
Assay in all cases: SPR (Biacore), antibody captured on chip, FcgR extracellular domain as analyte, 25 C
[1] = molecular target: T1, human FcγRIIaR extracellular domain with C-terminal His-tag (human, UniProt P12318 34-217)
T1 construct: Expressed in FreeStyle 293 cells and purified; also called human FcγRIIa (type R); FcgRIIaR; not shown: C-terminal His-tag
T1 chain: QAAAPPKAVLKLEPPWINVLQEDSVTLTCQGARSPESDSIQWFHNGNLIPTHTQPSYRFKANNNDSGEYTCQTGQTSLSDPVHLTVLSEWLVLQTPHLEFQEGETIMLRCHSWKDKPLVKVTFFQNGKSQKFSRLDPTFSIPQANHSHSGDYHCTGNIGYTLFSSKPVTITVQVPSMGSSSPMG
Procedure: (§1) The kinetic analysis of interactions between these antibodies and FcγR was carried out using BIACORE® T200 or BIACORE® 4000 (GE Healthcare). HBS-EP+ (GE Healthcare) was used as the running buffer, and the measurement temperature was set to 25° C. A chip produced by immobilizing Protein A. Protein A/G or mouse anti-human IgG kappa light chain (BD Biosciences) onto a Series S Sensor Chip CM4 or CM5 (GE Healthcare) by the amine-coupling method was used. […] After the measurement, the antibody captured on the chip was washed off by allowing reaction with 10 mM glycine-HCl, pH1.5 and 25 mM NaOH so that the chip was regenerated and used repeatedly. The sensorgrams obtained as measurement results were analyzed by the 1:1 Langmuir binding model using the BIACORE® Evaluation Software to calculate the binding rate constant ka (L/mol/s) and dissociation rate constant kd (l/s), and the dissociation constant KD (mol/L) was calculated from these values. […] Regarding such interactions, KD values were calculated using the following 1:1 binding model described in BIACORE® T100 Software Handbook BR1006-48 Edition AE.
(§2) The resultant variants were expressed using M103202L889-SK1 as light chain and their affinity to human and cynoFcγRs were evaluated (Table 20).

[2] = molecular target: T2, cynomolgus monkey FcγRIIa2 extracellular domain with C-terminal His-tag (cynomolgus monkey)
T2 construct: Expressed in FreeStyle 293 cells and purified; also called cyno FcγRIIa2; cynoFcgRIIa2; not shown: C-terminal His-tag
T2 chain: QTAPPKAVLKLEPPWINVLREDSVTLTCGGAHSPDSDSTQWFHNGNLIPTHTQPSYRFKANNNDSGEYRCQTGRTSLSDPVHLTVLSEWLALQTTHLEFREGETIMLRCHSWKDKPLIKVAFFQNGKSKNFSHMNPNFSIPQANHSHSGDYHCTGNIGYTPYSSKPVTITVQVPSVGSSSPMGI
Procedure: as §1, §2

[3] = molecular target: T3, human FcγRIIIaV extracellular domain with C-terminal His-tag (human, UniProt P08637 17-208)
T3 construct: Expressed in FreeStyle 293 cells and purified; also called FcgRIIIaV; not shown: C-terminal His-tag
T3 sequence (P08637 17-208 F176V): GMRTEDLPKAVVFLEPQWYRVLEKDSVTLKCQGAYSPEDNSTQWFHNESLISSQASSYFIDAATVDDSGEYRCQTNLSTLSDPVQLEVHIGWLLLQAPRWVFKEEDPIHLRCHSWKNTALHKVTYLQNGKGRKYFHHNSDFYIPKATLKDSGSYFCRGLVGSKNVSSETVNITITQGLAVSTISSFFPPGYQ
Procedure: as §1, §2

[4] = molecular target: T4, cynomolgus monkey FcγRIIa3 extracellular domain with C-terminal His-tag (cynomolgus monkey)
T4 construct: Expressed in FreeStyle 293 cells and purified; also called cyno FcγRIIa3; cynoFcgRIIa3; not shown: C-terminal His-tag
T4 chain: T2 chain with K127I, N130K, H133P, Q142R
Procedure: as §1, §2

[5] = molecular target: T5, cynomolgus monkey FcγRIIIaS extracellular domain with C-terminal His-tag (cynomolgus monkey, UniProt Q8SPW2 21-206 at identity 1.00))
T5 construct: Expressed in FreeStyle 293 cells and purified; also called cyno FcγRIIIaS; cynoFcγRIIIaS; not shown: C-terminal His-tag
T5 chain: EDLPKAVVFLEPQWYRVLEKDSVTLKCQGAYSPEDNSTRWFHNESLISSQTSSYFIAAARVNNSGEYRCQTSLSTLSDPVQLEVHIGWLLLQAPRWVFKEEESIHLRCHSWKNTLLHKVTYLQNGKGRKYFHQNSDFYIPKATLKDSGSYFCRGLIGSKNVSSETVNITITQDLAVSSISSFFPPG
Procedure: as §1, §2

[6] = molecular target: T6, cynomolgus monkey FcγRIIb extracellular domain with C-terminal His-tag (cynomolgus monkey)
T6 construct: Expressed in FreeStyle 293 cells and purified; also called cyno FcγRIIb; cynoFcγRIIb; not shown: C-terminal His-tag
T6 chain: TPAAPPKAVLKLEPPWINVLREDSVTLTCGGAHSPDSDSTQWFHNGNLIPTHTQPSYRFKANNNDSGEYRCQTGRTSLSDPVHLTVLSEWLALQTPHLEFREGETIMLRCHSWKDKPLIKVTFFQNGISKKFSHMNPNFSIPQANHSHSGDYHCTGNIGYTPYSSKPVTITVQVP
Procedure: as §1, §2

[7] = molecular target: T7, cynomolgus monkey FcγRIIa1 extracellular domain with C-terminal His-tag (cynomolgus monkey)
T7 construct: Expressed in FreeStyle 293 cells and purified; also called cyno FcγRIIa1; cynoFcgRIIa1; not shown: C-terminal His-tag
T7 chain: T2 chain with T95P, A121T, K127I, S128A, N130K, N135D, Q142R
Procedure: as §1, §2

B1: MS_M103205H795-SG1/M103202L889-SK1 (antibody, human IgG1, kappa)
heavy: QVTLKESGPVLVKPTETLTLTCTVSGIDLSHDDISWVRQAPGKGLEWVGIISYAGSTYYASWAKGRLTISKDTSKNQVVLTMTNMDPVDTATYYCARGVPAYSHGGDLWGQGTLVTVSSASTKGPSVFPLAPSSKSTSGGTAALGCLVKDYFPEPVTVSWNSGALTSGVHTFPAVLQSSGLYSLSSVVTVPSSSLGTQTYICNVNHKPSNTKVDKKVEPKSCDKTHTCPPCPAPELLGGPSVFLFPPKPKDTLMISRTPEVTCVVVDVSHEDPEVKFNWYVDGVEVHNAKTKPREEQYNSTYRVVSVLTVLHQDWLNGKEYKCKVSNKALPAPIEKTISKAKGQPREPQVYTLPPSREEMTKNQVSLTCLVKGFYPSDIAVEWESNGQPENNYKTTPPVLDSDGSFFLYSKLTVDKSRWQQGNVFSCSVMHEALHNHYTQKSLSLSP
light: DIVMTQSPATLSLSPGERATLSCTSSQSVYHANWLSWFQQKPGQPPKLLIYWASTLAYGVPSRFSGSGSGTDFTLTISSLQPEDAATYYCAGGYGGGRYAFGQGTKVEIKRTVAAPSVFIFPPSDEQLKSGTASVVCLLNNFYPREAKVQWKVDNALQSGNSQESVTEQDSKDSTYSLSSTLTLSKADYEKHKVYACEVTHQGLSSPVTKSFNRGEC
notes: Anti-latent myostatin IgG; also called MS1032LO06-SG1
Q: Which results are given for B1?
A: Kd [1]: 1100 nM; Kd [2]: 5100 nM; Kd [3]: 0.81 µM; Kd [4]: 17 µM; Kd [5]: 0.36 µM; Kd [6]: 1800 nM; Kd [7]: 3200 nM

B2: M103205H795-MY171 / M103202L889-SK1 (antibody, human IgG1, kappa)
heavy: QVTLKESGPVLVKPTETLTLTCTVSGIDLSHDDISWVRQAPGKGLEWVGIISYAGSTYYASWAKGRLTISKDTSKNQVVLTMTNMDPVDTATYYCARGVPAYSHGGDLWGQGTLVTVSSASTKGPSVFPLAPSSKSTSGGTAALGCLVKDYFPEPVTVSWNSGALTSGVHTFPAVLQSSGLYSLSSVVTVPSSSLGTQTYICNVNHKPSNTKVDKKVEPKSCDKTHTCPPCPAPELLNGPSVFLFPPKPKDTLMISRTPEVTCVVVDVSEEDPEVKFNWYVDGVEVHNAKTKPREEQYNSTYRVVSVLTVLHQDWLNGKEYKCKVSNKALPAPIEKTISKAKGQPREPQVYTLPPSREEMTKNQVSLTCLVKGFYPSDIAVEWESNGQPENNYKTTPFVLDSDGSFFLYSKLTVDKSRWQQGNVFSCSVMHEALHNHYTQKSLSLSP
light: B1 light
notes: Position 396 variant derived from MY052, expressed with M103202L889-SK1 as light chain
Q: Which Kd [1] does the source give for B2 here?
A: Its Kd is 2100 nM.

Q: What about the Kd [2] of the same binder?
A: Its Kd is 23000 nM.

Q: And the Kd [3]?
A: The Kd was 5.9 µM.

Q: And the Kd [4]?
A: The Kd was 92 µM.

Q: And the Kd [5]?
A: Its Kd is 3.5 µM.

Q: And the Kd [6]?
A: Its Kd is 980 nM.

Q: What about the Kd [7] of the same binder?
A: Its Kd is 2300 nM.

B3: M103205H795-MY169 / M103202L889-SK1 (antibody, human IgG1, kappa)
heavy: B2 heavy with F398D
light: B1 light
notes: as for B2
Q: For B3, which Kd [1] is on record?
A: Its Kd is 2500 nM.

Q: What about the Kd [2] of the same binder?
A: The Kd was 2300 nM.

Q: What about the Kd [3] of the same binder?
A: The Kd was 6.2 µM.

Q: What about the Kd [4] of the same binder?
A: The Kd was 9.9 µM.

Q: And the Kd [5]?
A: Its Kd is 3.5 µM.

Q: And the Kd [6]?
A: Its Kd is 1000 nM.

Q: What about the Kd [7] of the same binder?
A: Its Kd is 2300 nM.

B4: M103205H795-MY052 / M103202L889-SK1 (antibody, human IgG1, kappa)
heavy: B2 heavy with F398M
light: B1 light
notes: Fc variant of M103205H795-SG1, expressed with M103202L889-SK1 as light chain; parent of the position 396 variants
Q: Which Kd [1] does the source give for B4 here?
A: Its Kd is 1400 nM.

Q: And the Kd [2]?
A: The Kd was 1500 nM.

Q: And the Kd [3]?
A: The Kd was 1.5 µM.

Q: What about the Kd [4] of the same binder?
A: The Kd was 3.9 µM.

Q: What about the Kd [5] of the same binder?
A: Its Kd is 1.5 µM.

Q: What about the Kd [6] of the same binder?
A: The Kd was 460 nM.

Q: What about the Kd [7] of the same binder?
A: The Kd was 1400 nM.

B5: M103205H795-MY168 / M103202L889-SK1 (antibody, human IgG1, kappa)
heavy: B2 heavy with F398A
light: B1 light
notes: as for B2
Q: Which Kd [1] does the source give for B5 here?
A: Its Kd is 2300 nM.

Q: And the Kd [2]?
A: Its Kd is 2500 nM.

Q: What about the Kd [3] of the same binder?
A: The Kd was 8.1 µM.

Q: What about the Kd [4] of the same binder?
A: Its Kd is 10 µM.

Q: And the Kd [5]?
A: The Kd was 4.5 µM.

Q: What about the Kd [6] of the same binder?
A: Its Kd is 1200 nM.

Q: And the Kd [7]?
A: Its Kd is 2200 nM.

B6: M103205H795-MY170 / M103202L889-SK1 (antibody, human IgG1, kappa)
heavy: B2 heavy with F398E
light: B1 light
notes: as for B2
Q: For B6, which Kd [1] is on record?
A: Its Kd is 2500 nM.

Q: And the Kd [2]?
A: The Kd was 2400 nM.

Q: And the Kd [3]?
A: Its Kd is 6.3 µM.

Q: What about the Kd [4] of the same binder?
A: Its Kd is 12 µM.

Q: What about the Kd [5] of the same binder?
A: The Kd was 2.9 µM.

Q: What about the Kd [6] of the same binder?
A: Its Kd is 1200 nM.

Q: And the Kd [7]?
A: Its Kd is 2300 nM.
